Assay results reported in the Human Domainome abundance scans (Beltran et al. 2025).
± gives the uncertainty stated by the source.

B1: Retinoic acid receptor RXR-alpha, residues 132 to 208; numbered along this chain, P19793 (parent)
chain: KHICAICGDRSSGKHYGVYSCEGCKGFFKRTVRKDLTYTCRDNKDCLIDKRQRNRCQYCRYQKCLAMGMKREAVQEE

Variants of: B1
Assay: abundance fitness (aPCA) (normalised: wild type 0, dead -1); higher = more abundant; growth selection in yeast, the domain comes from the species named
Settings: Homo sapiens

Variant	abundance fitness
C46V	-0.193 ± 0.036
C46S	-0.274 ± 0.04
T37Y	-0.082 ± 0.066
T37H	0.053 ± 0.052
T37P	0.064 ± 0.056
T37S	-0.025 ± 0.035
T37V	0.035 ± 0.033
T37M	-0.147 ± 0.049
H2R	-0.101 ± 0.032
H2Q	-0.031 ± 0.043
H2D	0.072 ± 0.061
H2L	-0.041 ± 0.037
H2W	-0.109 ± 0.044
A66H	0.045 ± 0.034
A66E	0.033 ± 0.045
A66W	-0.063 ± 0.046
C56Y	-0.431 ± 0.19
R33N	-0.017 ± 0.035
R33L	-0.096 ± 0.028
E22C	-0.043 ± 0.053
E22Y	-0.135 ± 0.057
E22I	-0.011 ± 0.051
E22D	-0.062 ± 0.051
E22S	-0.063 ± 0.035

Variant	abundance fitness
R53G	-0.009 ± 0.032
R53T	0.063 ± 0.031
K1H	-0.222 ± 0.06
K1A	-0.531 ± 0.094
K1R	-0.286 ± 0.055
K1V	-0.206 ± 0.042
Y58S	0 ± 0.037
Y58D	0.045 ± 0.05
R41L	-0.091 ± 0.026
L65A	-0.038 ± 0.036
L65Y	0.015 ± 0.078
L65K	-0.008 ± 0.046
L65G	-0.148 ± 0.03
G17Y	-0.1 ± 0.13
G17N	0.056 ± 0.068
C4Y	-0.875 ± 0.099
C4K	-1.23 ± 0.2
C4T	-0.757 ± 0.063
C4F	-0.955 ± 0.11
C4N	-0.936 ± 0.12
C4S	-1.03 ± 0.076
L36K	-0.018 ± 0.052
L36A	0.031 ± 0.04
R51N	-0.071 ± 0.091

Variant	abundance fitness
R51D	-0.073 ± 0.081
D45T	-0.051 ± 0.051
D45F	-0.104 ± 0.066
D45N	-0.034 ± 0.061
D45K	0.058 ± 0.047
D45M	-0.404 ± 0.19
D45L	-0.062 ± 0.064
L47Q	-0.095 ± 0.071
L47H	-0.016 ± 0.079
L47S	-0.122 ± 0.038
L47V	-0.008 ± 0.033
N43I	0.019 ± 0.075
N43Q	-0.099 ± 0.052
N43H	0.066 ± 0.082
N43M	0.02 ± 0.048
N43F	-0.071 ± 0.068
G13F	-0.114 ± 0.092
G13I	-0.367 ± 0.11
G13C	-0.707 ± 0.16
G13V	-0.067 ± 0.039
G13N	0.048 ± 0.084
E76S	-0.034 ± 0.029
E76K	-0.099 ± 0.06
E76Q	0.001 ± 0.044

Variant	abundance fitness
E76D	0.05 ± 0.041
E76F	0.003 ± 0.035
T39R	0.008 ± 0.03
T39G	0.045 ± 0.027
T39C	0.04 ± 0.051
D49I	0.069 ± 0.1
D49E	-0.005 ± 0.058
D49Q	0.036 ± 0.076
Y19E	-0.047 ± 0.038
Y19D	-0.041 ± 0.038
K44C	-0.025 ± 0.052
K44D	0.092 ± 0.056
K44F	-0.024 ± 0.073
D9N	-0.05 ± 0.033
D9G	-0.166 ± 0.039
D9P	-0.662 ± 0.054
D9Q	0.033 ± 0.045
D9T	-0.089 ± 0.031
D9M	-0.354 ± 0.051
D9I	-0.455 ± 0.04
M67S	0.019 ± 0.025
M67K	0.007 ± 0.036
Y38N	-0.101 ± 0.065
Y38D	-0.115 ± 0.054

Variant	abundance fitness
Y38F	0.078 ± 0.071
C40V	-0.737 ± 0.056
C40K	-0.504 ± 0.078
C40D	-0.314 ± 0.083
E72M	-0.07 ± 0.099
E72H	-0.109 ± 0.093
R71D	0.065 ± 0.036
R71P	0.005 ± 0.031
R71E	0.006 ± 0.035
R71I	0.028 ± 0.033
R71C	-0.001 ± 0.04
E77W	0.04 ± 0.061
E77G	0.073 ± 0.038
E77I	0.038 ± 0.044
E77C	0.013 ± 0.041
E77T	0.106 ± 0.041
E77F	0.1 ± 0.058
E77N	0.065 ± 0.049
K50W	-0.107 ± 0.047
K50T	-0.099 ± 0.065
K50Q	0.047 ± 0.06
K14S	-0.04 ± 0.037
K14Y	-0.218 ± 0.1
K14H	-0.414 ± 0.1

Variant	abundance fitness
K14I	-0.112 ± 0.088
K14C	-0.027 ± 0.05
K14V	-0.057 ± 0.028
R30K	0.073 ± 0.056
R30D	-0.008 ± 0.064
C59M	-1.08 ± 0.19
C59A	-0.748 ± 0.085
C59F	-1.05 ± 0.21
C59H	-0.066 ± 0.073
C59V	-0.915 ± 0.097
C59E	-0.59 ± 0.09
A5V	-0.054 ± 0.033
A5H	0.044 ± 0.063
A5G	-0.045 ± 0.027
H15P	-0.034 ± 0.028
H15Q	-0.007 ± 0.034
K70F	0.043 ± 0.054
K70D	0.006 ± 0.052
K70V	0.04 ± 0.034
K70P	0.021 ± 0.05
M69D	-0.733 ± 0.075
M69C	-0.09 ± 0.038
M69Q	-0.157 ± 0.049
M69T	-0.343 ± 0.042

Variant	abundance fitness
M69W	-0.007 ± 0.052
G68L	-0.362 ± 0.032
G68I	-0.544 ± 0.049
G23C	-0.258 ± 0.034
G23M	-0.305 ± 0.034
G23A	-0.082 ± 0.026
G23Q	-0.157 ± 0.033
G23T	-0.256 ± 0.03
T31N	-0.114 ± 0.034
T31R	-0.504 ± 0.033
T31P	-0.641 ± 0.059
Y16R	-0.055 ± 0.024
Y16E	0.078 ± 0.03
Y16T	-0.04 ± 0.026
Y16W	-0.015 ± 0.032
I3F	-0.06 ± 0.04
I3N	-0.001 ± 0.033
I3Y	-0.058 ± 0.038
I3T	-0.008 ± 0.031
I3G	-0.28 ± 0.043
D42N	0.02 ± 0.11
V18H	-0.356 ± 0.044
V18E	0.01 ± 0.04
